Data as given in PMC4888843.

What was measured:
mouse Bcl-2ΔC22 (mouse) = mouse Bcl-2ΔC22 (mouse) (UniProt P10417); assay: SPR
human BAXΔC21 (human) = human BAXΔC21 (human) (UniProt Q07812); assay: SEC
[1] = biological target: human MCL-1ΔN170ΔC23 (human) (UniProt Q07820); assay: ELISA

mBak Q75L BH3 synthetic peptide
fold weaker affinity than wild-type mBak BH3 (mouse Bcl-2ΔC22 (mouse)): 2.5 fold

human BAXΔC21 (from UniProt Q07812 1-171) (domain or fragment)
stoichiometry N (human BAXΔC21 (human)): 2

phage-displayed human BAK BH3 peptide G82E (from UniProt Q16611 67-92)
IC50 [1]: > 10 µM
